Experimental data published in the supplement of paper PMC7877785.
± gives the uncertainty stated by the source.

Experiment: self-splicing fitness, log relative to wild type (ln ratio); higher = more splicing; Tetrahymena group I intron in knt gene, E. coli kanamycin selection, DiMSum; sequences stand for … in CUCUCU…GGAGGGAAAAGUUAUCAGGCAUGCACCUGGUAGCUAGUCUUUAAACCAAUAGAUUGCAUCGGUUUAAAAGGCAAGACCGUCAAAUUGCGGGAAAGGGGUCAACAGCCGUUCAGUACCAAGUCUCAGGGGAAACUUUGAGAUGGCCUUGCAAAGGGUAUGGUAAUAAGCUGACGGACAUGGUCCUAACCACGCAGCCAAGUCCUAAGUCAACAGAUCUUCUGUUGAUAUGGAUGCAGUUCACAGACUAAAUGUCGGUCGGGGAAGAUGUAUUCUUCUCAUAAGAUAUAGUCGGACCUCUCCUUAAUGGGAGCUAGCGGAUGAAGUGAUGCAACACUGGAGCCGCUGGGAACUAAUUUGUAUGCGAAAGUAUAUUGAUUAGUUUUGGAGUACUCGUGGUCG
Procedure, shortened: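 Fitness was computed with DiMSum as the error-weighted combination of replicate fold changes, kanamycin versus none, each normalised to wild type. The library randomised all eight intron nucleotides of the P1ex region, with the intron placed in the knt kanamycin-resistance gene on pET-22b(+) in E. coli BL21(DE3). Six replicate transformations were grown overnight at 37°C or 30°C on LB agar with or without 25 μg/mL kanamycin, plus 100 μg/mL carbenicillin, 50 μM IPTG and 0.2% rhamnose. Pooled colonies were amplicon-sequenced on an Illumina HiSeq 2500.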

| Sequence | self-splicing fitness (ln) (30 °C) | self-splicing fitness (ln) (37 °C) |
| --- | --- | --- |
| CAGCAGCAAUAUUACGGGGC | -3.66 ± 0.14 | -2.45 ± 0.15 |
| CAGCAGCAAUAUUACGGGUC | -2.33 ± 0.14 | -1.96 ± 0.19 |
| CAGCAGCAAUAUUACGGUAC | -3.46 ± 0.14 | -2.26 ± 0.14 |
| CAGCAGCAAUAUUACGGUCG | 0.264 ± 0.053 | 0.584 ± 0.08 |
| CAGCAGCAAUAUUACGGUGA | -2 ± 0.083 | -0.913 ± 0.086 |
| CAGCAGCAAUAUUACGUGAU | -3.66 ± 0.15 | -1.78 ± 0.14 |
| CAGCAGCAAUAUUACGUUGA | -2.82 ± 0.16 | -1.93 ± 0.18 |
| CAGCAGCAAUAUUACGUUUG | -3.1 ± 0.16 | -2.01 ± 0.16 |
| CAGCAGCAAUAUUACGUUUU | -2.86 ± 0.1 | -1.15 ± 0.11 |
| CAGGAGCAAUAUUACGAAAG | -1.8 ± 0.17 | -1.11 ± 0.23 |
| CAGGAGCAAUAUUACGAAGU | -4.19 ± 0.28 | -2.39 ± 0.37 |
| CAGGAGCAAUAUUACGAAUU | -3.43 ± 0.35 | -2.43 ± 0.3 |
| CAGGAGCAAUAUUACGACAG | -0.986 ± 0.27 | -1.19 ± 0.27 |
| CAGGAGCAAUAUUACGAGCA | -2.15 ± 0.33 | -1.53 ± 0.36 |
| CAGGAGCAAUAUUACGAGGG | -3.21 ± 0.24 | -1.97 ± 0.2 |
| CAGGAGCAAUAUUACGCAGU | -2 ± 0.31 | -1.44 ± 0.29 |
| CAGGAGCAAUAUUACGCCAA | -2.89 ± 0.37 | – |
| CAGGAGCAAUAUUACGCCCG | -2.75 ± 0.42 | -0.874 ± 0.37 |
| CAGGAGCAAUAUUACGCCCU | – | -1.65 ± 0.32 |
| CAGGAGCAAUAUUACGCCUA | -0.617 ± 0.19 | -1.01 ± 0.21 |
| CAGGAGCAAUAUUACGCCUG | -3.09 ± 0.29 | -1.01 ± 0.22 |
| CAGGAGCAAUAUUACGCGCU | -2.49 ± 0.2 | -2.62 ± 0.41 |
| CAGGAGCAAUAUUACGCUCG | -3.55 ± 0.34 | -1.37 ± 0.33 |
| CAGGAGCAAUAUUACGGAUU | -3.18 ± 0.23 | -2.52 ± 0.37 |
| CAGGAGCAAUAUUACGGCAA | -4.26 ± 0.32 | -2.84 ± 0.33 |

| Sequence | self-splicing fitness (ln) (30 °C) | self-splicing fitness (ln) (37 °C) |
| --- | --- | --- |
| CAGGAGCAAUAUUACGGCCG | -0.398 ± 0.09 | 0.0497 ± 0.12 |
| CAGGAGCAAUAUUACGGCUG | -2.97 ± 0.18 | -2.37 ± 0.22 |
| CAGGAGCAAUAUUACGGGAA | -4.1 ± 0.23 | -2.47 ± 0.17 |
| CAGGAGCAAUAUUACGGGAG | -1.92 ± 0.18 | -0.745 ± 0.17 |
| CAGGAGCAAUAUUACGGGGC | -2.17 ± 0.23 | – |
| CAGGAGCAAUAUUACGGUCC | -2.86 ± 0.24 | -2.86 ± 0.38 |
| CAGGAGCAAUAUUACGGUUG | -1.89 ± 0.085 | -0.54 ± 0.12 |
| CAGGAGCAAUAUUACGUGAG | -1.42 ± 0.084 | -0.711 ± 0.098 |
| CAGGAGCAAUAUUACGUGGC | – | -1.5 ± 0.38 |
| CAGUAGCAAUAUUACGACUG | -4.55 ± 0.26 | -2.84 ± 0.23 |
| CAGUAGCAAUAUUACGAUGA | -1.92 ± 0.24 | 0.175 ± 0.18 |
| CAGUAGCAAUAUUACGCCAC | -2.54 ± 0.3 | – |
| CAGUAGCAAUAUUACGCGAG | -2.01 ± 0.16 | -0.736 ± 0.12 |
| CAGUAGCAAUAUUACGCUAU | -3.57 ± 0.23 | -3.27 ± 0.32 |
| CAGUAGCAAUAUUACGCUUG | -0.882 ± 0.13 | -0.797 ± 0.22 |
| CAGUAGCAAUAUUACGGAAG | -1.9 ± 0.15 | -0.317 ± 0.14 |
| CAGUAGCAAUAUUACGGACU | -2.38 ± 0.16 | -0.698 ± 0.12 |
| CAGUAGCAAUAUUACGGAUG | -1.04 ± 0.099 | -0.362 ± 0.12 |
| CAGUAGCAAUAUUACGGCGU | -2.25 ± 0.12 | -0.753 ± 0.14 |
| CAGUAGCAAUAUUACGGGAA | -2.93 ± 0.26 | -2.44 ± 0.25 |
| CAGUAGCAAUAUUACGGUAG | -1.21 ± 0.067 | 0.0261 ± 0.098 |
| CAGUAGCAAUAUUACGUAAA | -2.13 ± 0.16 | -1.61 ± 0.24 |
| CAGUAGCAAUAUUACGUCAU | -3.37 ± 0.22 | -2.4 ± 0.26 |
| CAGUAGCAAUAUUACGUCUG | -3.23 ± 0.11 | -2.6 ± 0.13 |
| CAGUAGCAAUAUUACGUGAA | -3.97 ± 0.34 | -2.15 ± 0.22 |

| Sequence | self-splicing fitness (ln) (30 °C) | self-splicing fitness (ln) (37 °C) |
| --- | --- | --- |
| CAGUAGCAAUAUUACGUGCC | -3.68 ± 0.35 | -1.93 ± 0.27 |
| CAGUAGCAAUAUUACGUUGC | -3.47 ± 0.34 | – |
| CAGUAGCAAUAUUACGUUUU | -3.8 ± 0.24 | -3.01 ± 0.24 |
| CAUAAGCAAUAUUACGAAUC | -3.25 ± 0.25 | -3.34 ± 0.37 |
| CAUAAGCAAUAUUACGACGU | -2.51 ± 0.14 | -1.27 ± 0.15 |
| CAUAAGCAAUAUUACGAGCC | -3.21 ± 0.35 | -2.41 ± 0.44 |
| CAUAAGCAAUAUUACGAGUC | -3.2 ± 0.43 | -2.68 ± 0.38 |
| CAUAAGCAAUAUUACGCACG | -1.64 ± 0.1 | -0.299 ± 0.13 |
| CAUAAGCAAUAUUACGCAGU | -3.05 ± 0.23 | -0.865 ± 0.13 |
| CAUAAGCAAUAUUACGCCCG | -0.556 ± 0.16 | -0.0931 ± 0.22 |
| CAUAAGCAAUAUUACGCCGU | -3.29 ± 0.36 | -1.15 ± 0.19 |
| CAUAAGCAAUAUUACGCCUG | -2.54 ± 0.22 | -1.39 ± 0.17 |
| CAUAAGCAAUAUUACGCGAC | -3.45 ± 0.33 | -3.11 ± 0.4 |
| CAUAAGCAAUAUUACGCGAU | -3.46 ± 0.26 | -3.08 ± 0.28 |
| CAUAAGCAAUAUUACGCGGG | -1.6 ± 0.17 | -2.18 ± 0.25 |
| CAUAAGCAAUAUUACGCUGG | -2.08 ± 0.18 | -2.03 ± 0.17 |
| CAUAAGCAAUAUUACGGAAA | – | -0.782 ± 0.37 |
| CAUAAGCAAUAUUACGGAAC | – | -2.26 ± 0.22 |
| CAUAAGCAAUAUUACGGAAU | -4.25 ± 0.23 | -2.43 ± 0.18 |
| CAUAAGCAAUAUUACGGAUA | -3.62 ± 0.19 | -2.87 ± 0.18 |
| CAUAAGCAAUAUUACGGGUA | -3.36 ± 0.21 | -2.64 ± 0.17 |
| CAUAAGCAAUAUUACGGUUG | -2.47 ± 0.094 | -1.59 ± 0.1 |
| CAUAAGCAAUAUUACGUAGU | -3.82 ± 0.28 | -0.576 ± 0.17 |
| CAUAAGCAAUAUUACGUCGU | -4.23 ± 0.34 | -1.64 ± 0.12 |
| CAUAAGCAAUAUUACGUGGU | -3.76 ± 0.17 | -3.31 ± 0.2 |

| Sequence | self-splicing fitness (ln) (30 °C) | self-splicing fitness (ln) (37 °C) |
| --- | --- | --- |
| CAUAAGCAAUAUUACGUGUU | -3.05 ± 0.13 | -2.62 ± 0.13 |
| CAUCAGCAAUAUUACGAGUA | -2.12 ± 0.12 | -1.47 ± 0.095 |
| CAUCAGCAAUAUUACGAUCU | -0.778 ± 0.06 | -0.771 ± 0.087 |
| CAUCAGCAAUAUUACGCACG | -0.443 ± 0.086 | 0.189 ± 0.11 |
| CAUCAGCAAUAUUACGCAUU | -1.36 ± 0.079 | -0.544 ± 0.1 |
| CAUCAGCAAUAUUACGGCGG | -0.364 ± 0.071 | 0.3 ± 0.12 |
| CAUCAGCAAUAUUACGGGGU | -4.39 ± 0.25 | -2.11 ± 0.25 |
| CAUCAGCAAUAUUACGGGUA | -0.63 ± 0.07 | -0.0764 ± 0.079 |
| CAUCAGCAAUAUUACGGUAA | -2.64 ± 0.14 | -1.09 ± 0.086 |
| CAUCAGCAAUAUUACGGUCA | -1.11 ± 0.076 | -0.81 ± 0.098 |
| CAUCAGCAAUAUUACGGUGA | -1.63 ± 0.12 | -1.4 ± 0.12 |
| CAUCAGCAAUAUUACGGUGG | -0.952 ± 0.045 | -0.393 ± 0.068 |
| CAUCAGCAAUAUUACGGUUG | -2.29 ± 0.072 | -0.804 ± 0.079 |
| CAUCAGCAAUAUUACGUGGU | -3.2 ± 0.096 | -2.07 ± 0.12 |
| CAUCAGCAAUAUUACGUUCA | -2.66 ± 0.16 | -1.77 ± 0.15 |
| CAUGAGCAAUAUUACGACAU | -3.739 ± 0.028 | -2.9 ± 0.043 |
| CAUGAGCAAUAUUACGACUA | -2.06 ± 0.27 | – |
| CAUGAGCAAUAUUACGAGGA | -2.72 ± 0.23 | -2.62 ± 0.26 |
| CAUGAGCAAUAUUACGAGGC | -2.4 ± 0.2 | -2.34 ± 0.26 |
| CAUGAGCAAUAUUACGCAAU | -3.1 ± 0.38 | – |
| CAUGAGCAAUAUUACGCGUA | -2.65 ± 0.24 | -2.45 ± 0.25 |
| CAUGAGCAAUAUUACGCUAC | – | -2.29 ± 0.49 |
| CAUGAGCAAUAUUACGCUCG | -2.72 ± 0.17 | -2.68 ± 0.4 |
